Blank lines part the entries; values can stand above or below the binder they belong to.
Assays:
holo-Transferrin human = molecular target: T1, holo-Transferrin human (Homo sapiens, UniProt P02787); experiment: ITC; in solution, PBS pH 7.4, MicroCal PEAQ-ITC; fitting model: sequential binding sites, number of sites 2; settings: both partners purified
T1 construct: human transferrin (serotransferrin), iron-saturated form, commercial preparation; same polypeptide as apo-Tf; also called holo-Tf; source: bought: Sigma-Aldrich

apo-Transferrin human = molecular target: T2, apo-Transferrin human (Homo sapiens, UniProt P02787); experiment: as above; settings: both partners purified
T2 construct: human transferrin (serotransferrin), iron-free form, commercial preparation; Iron-free form of transferrin; same polypeptide as holo-Tf; also called apo-Tf; source: bought: Sigma-Aldrich
T2 sequence (P02787 20-698): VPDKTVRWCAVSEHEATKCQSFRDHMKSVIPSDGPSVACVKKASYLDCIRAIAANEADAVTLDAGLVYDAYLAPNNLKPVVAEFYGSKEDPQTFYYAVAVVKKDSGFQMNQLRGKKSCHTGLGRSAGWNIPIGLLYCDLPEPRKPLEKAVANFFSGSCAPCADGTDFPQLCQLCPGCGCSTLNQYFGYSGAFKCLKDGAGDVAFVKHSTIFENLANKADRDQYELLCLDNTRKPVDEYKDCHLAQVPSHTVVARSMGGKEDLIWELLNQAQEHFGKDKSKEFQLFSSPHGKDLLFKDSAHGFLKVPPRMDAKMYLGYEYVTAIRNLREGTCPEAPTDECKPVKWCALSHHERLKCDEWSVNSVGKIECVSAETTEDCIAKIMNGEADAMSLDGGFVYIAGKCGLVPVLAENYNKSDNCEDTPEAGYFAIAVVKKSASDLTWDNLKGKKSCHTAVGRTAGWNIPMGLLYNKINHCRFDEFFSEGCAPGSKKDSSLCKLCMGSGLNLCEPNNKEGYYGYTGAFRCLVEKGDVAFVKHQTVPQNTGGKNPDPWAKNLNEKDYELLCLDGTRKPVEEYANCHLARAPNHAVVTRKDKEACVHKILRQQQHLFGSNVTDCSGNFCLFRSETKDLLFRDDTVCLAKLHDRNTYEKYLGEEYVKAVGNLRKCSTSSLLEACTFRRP

T1 sequence (P02787 20-698): as above

KD1 (sequential binding sites, site 1) (holo-Transferrin human): ~0.94 nM
KD2 (sequential binding sites, site 2) (holo-Transferrin human): ~0.75 nM
KD1 (sequential binding sites, site 1) (apo-Transferrin human): ~0.82 nM
KD2 (sequential binding sites, site 2) (apo-Transferrin human): ~14.5 nM
B1: aTf2 nanobody (anti-human transferrin single-domain antibody) (VHH)
VHH: QVQLVESGGGSVQAGGSLRLSCAVSGYMYSTNCMGWFRQAPGKEREGVAAIYTGGGSTYYPDSVKGRFTISQDNAKNTVYLQMNSLKPEDTAMYYCAAMRHCPYGGNWDHPVNYLGQGTQVTVSS
notes: variable domain of aTf2; long CDR3, cysteines in CDR1 and CDR3; HA-tag and His-tag follow it; source: generated in the bacterial periplasm, isolated and purified

KD1 (sequential binding sites, site 1) (holo-Transferrin human): ~0.44 nM
KD2 (sequential binding sites, site 2) (holo-Transferrin human): ~1.44 nM
KD1 (sequential binding sites, site 1) (apo-Transferrin human): ~99.4 nM
B2: aTf1 nanobody (anti-human transferrin single-domain antibody) (VHH)
VHH: QVQLVESGGGLVQPGGSLTLSCAASGFTFSTYAMKWVRQAPGMGLEYVASINNGGTSTFYSASVKGRFTISRDNAKNTLYLQLNSLKTEDTAMYYCARINEYSTRGQGTQVTVSS
notes: variable domain of aTf1; HA-tag and His-tag follow it; source: generated in the bacterial periplasm, isolated and purified
